B1: Factor H (FH) (natural protein)
chain: EDCNELPPRRNTEILTGSWSDQTYPEGTQAIYKCRPGYRSLGNVIMVCRKGEWVALNPLRKCQKRPCGHPGDTPFGTFTLTGGNVFEYGVKAVYTCNEGYQLLGEINYRECDTDGWTNDIPICEVVKCLPVTAPENGKIVSSAMEPDREYHFGQAVRFVCNSGYKIEGDEEMHCSDDGFWSKEKPKCVEISCKSPDVINGSPISQKIIYKENERFQYKCNMGYEYSERGDAVCTESGWRPLPSCEEKSCDNPYIPNGDYSPLRIKHRTGDEITYQCRNGFYPATRGNTAKCTSTGWIPAPRCTLKPCDYPDIKHGGLYHENMRRPYFPVAVGKYYSYYCDEHFETPSGSYWDHIHCTQDGWSPAVPCLRKCYFPYLENGYNQNYGRKFVQGKSIDVACHPGYALPKAQTTVTCMENGWSPTPRCIRVKTCSKSSIDIENGFISESQYTYALKEKAKYQCKLGYVTADGETSGSITCGKDGWSAQPTCIKSCDIPVFMNARTKNDFTWFKLNDTLDYECHDGYESNTGSTTGSIVCGYNGWSDLPICYERECELPKIDVHLVPDRKKDQYKVGEVLKFSCKPGFTIVGPNSVQCYHFGLSPDLPICKEQVQSCGPPPELLNGNVKEKTKEEYGHSEVVEYYCNPRFLMKGPNKIQCVDGEWTTLPVCIVEESTCGDIPELEHGWAQLSSPPYYYGDSVEFNCSESFTMIGHRSITCIHGVWTQLPQCVAIDKLKKCKSSNLIILEEHLKNKKEFDHNSNIRYRCRGKEGWIHTVCINGRWDPEVNCSMAQIQLCPPPPQIPNSHNMTTTLNYRDGEKVSVLCQENYLIQEGEEITCKDGRWQSIPLCVEKIPCSQPPQIEHGTINSSRSSQESYAHGTKLSYTCEGGFRISEENETTCYMGKWSSPPQCEGLPCKSPPEISHGVVAHMSDSYQYGEEVTYKCFEGFGIDGPAIAKCLGEKWSHPPSCIKTDCLSLPSFENAIPMGEKKDVYKAGEQVTYTCATYYKMDGASNVTCINSRWTGRPTCRDTSCVNPPTVQNAYIVSRQMSKYPSGERVRYQCRSPYEMFGDEEVMCLNGNWTEPPQCKDSTGKCGPPPPIDNGDITSFPLSVYAPASSVEYQCQNLYQLEGNKRITCRNGQWSEPPKCLHPCVISREIMENYNIALRWTAKQKLYSRTGESVEFVCKRGYRLSSRSHTLRTTCWDGKLEYPTCAKR
notes: complement factor H, plasma regulator; source: purified from plasma

Columns and labels:
[1] = target: C3b (UniProt P01024); assay: radioligand binding; C3b (5 ug/ml) coated on microtiter wells, blocked with 0.5% BSA; 125I-sCR1 (30,000 cpm) mixed with the unlabelled protein (0-0.33 uM) in 1/2 PBS with 0.1% BSA; 60 min, 37 C; bound radioactivity counted
Target sequence in this assay (P01024 23-667, chain 1 of 2): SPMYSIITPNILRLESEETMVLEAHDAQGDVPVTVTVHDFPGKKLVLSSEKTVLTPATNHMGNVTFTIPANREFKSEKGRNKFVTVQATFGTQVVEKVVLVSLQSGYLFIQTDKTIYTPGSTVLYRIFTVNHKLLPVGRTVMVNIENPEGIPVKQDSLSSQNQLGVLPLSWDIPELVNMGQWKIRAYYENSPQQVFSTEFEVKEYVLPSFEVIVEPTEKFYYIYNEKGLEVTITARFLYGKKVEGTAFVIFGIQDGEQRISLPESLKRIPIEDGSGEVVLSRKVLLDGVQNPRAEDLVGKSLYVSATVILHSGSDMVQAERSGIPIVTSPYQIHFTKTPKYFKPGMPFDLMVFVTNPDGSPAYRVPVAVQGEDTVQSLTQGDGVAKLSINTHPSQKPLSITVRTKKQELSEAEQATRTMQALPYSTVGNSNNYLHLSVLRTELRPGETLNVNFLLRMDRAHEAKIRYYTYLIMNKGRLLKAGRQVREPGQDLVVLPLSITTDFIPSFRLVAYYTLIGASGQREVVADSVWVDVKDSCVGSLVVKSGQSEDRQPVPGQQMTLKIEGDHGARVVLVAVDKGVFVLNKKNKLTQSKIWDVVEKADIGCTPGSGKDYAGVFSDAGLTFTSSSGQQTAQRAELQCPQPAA
Target sequence in this assay (P01024 749-1663, chain 2 of 2): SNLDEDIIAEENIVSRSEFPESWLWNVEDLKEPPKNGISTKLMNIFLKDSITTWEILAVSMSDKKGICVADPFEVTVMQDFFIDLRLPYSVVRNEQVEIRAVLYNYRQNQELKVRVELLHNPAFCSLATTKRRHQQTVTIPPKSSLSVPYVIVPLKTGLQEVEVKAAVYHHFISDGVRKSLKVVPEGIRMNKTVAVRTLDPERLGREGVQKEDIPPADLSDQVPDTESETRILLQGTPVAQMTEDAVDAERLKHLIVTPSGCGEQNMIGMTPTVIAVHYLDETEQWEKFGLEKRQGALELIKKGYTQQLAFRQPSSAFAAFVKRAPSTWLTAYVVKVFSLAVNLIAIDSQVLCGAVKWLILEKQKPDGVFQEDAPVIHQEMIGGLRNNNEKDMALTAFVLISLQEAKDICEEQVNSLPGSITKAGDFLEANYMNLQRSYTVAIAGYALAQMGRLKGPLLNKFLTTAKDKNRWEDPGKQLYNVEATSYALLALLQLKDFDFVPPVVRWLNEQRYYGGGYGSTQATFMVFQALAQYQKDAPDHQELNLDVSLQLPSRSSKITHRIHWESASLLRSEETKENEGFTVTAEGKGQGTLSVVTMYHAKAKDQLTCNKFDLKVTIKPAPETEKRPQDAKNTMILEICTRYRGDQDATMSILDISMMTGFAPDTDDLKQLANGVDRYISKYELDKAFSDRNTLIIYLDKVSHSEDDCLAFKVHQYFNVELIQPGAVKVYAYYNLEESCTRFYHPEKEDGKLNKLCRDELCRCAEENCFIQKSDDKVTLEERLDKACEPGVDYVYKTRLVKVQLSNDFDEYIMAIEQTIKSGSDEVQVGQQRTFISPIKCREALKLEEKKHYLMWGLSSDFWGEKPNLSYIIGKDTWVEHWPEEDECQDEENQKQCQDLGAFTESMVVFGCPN

[2] = target: T1, C3b (UniProt P01024); assay: as above; settings: both partners purified
T1 construct: complement C3 beta chain, as it stands in C3b; alpha'-chain of C3b, the cut product of the C3 alpha chain (here made with trypsin); the C3b was detected with anti-human C3 and anti-human C3c antibodies; also called solid-phase C3b; source: C3 purified from plasma; C3b prepared from C3 using trypsin
T1 sequence (P01024 23-667, chain 1 of 2): as the sequence (P01024 23-667, chain 1 of 2) above
T1 sequence (P01024 749-1663, chain 2 of 2): as the sequence (P01024 749-1663, chain 2 of 2) above

Molecule | percent inhibition of sCR1 binding to C3b [1] | binding result [2]
Extracellular complement binding protein (Ecb) (natural protein) | 80% | –
B1 | – | binds

From publication PMC5342210, “Staphylococcal protein Ecb impairs complement receptor-1 mediated recognition of opsonized bacteria” (PLoS ONE, 2017)
